Reference: patent publication US20240294611A1 (University of Texas, published 2024)

Biological target: SARS-CoV spike without stabilizing modifications on pseudovirus (SARS-CoV, UniProt P59594 14-1255)
Assay: cell-based or functional assay

B1: 3A3 full-length antibody (mouse variable region-human IgG1 constant region chimera) (antibody, V domains shown)
VH: QVQLQQSGAELLKPGASVKLSCTASGFNIKDTYIHWLKQRPEQGLEWIGRIGPAIGNTIYAPKFQGKATITTDTSSNTAYLQLSSLTSEDTAVYYCARYYGSSYYYFDYWGQGTTLTVSS
VL: DIVMTQSAPSVPVTPGESVSISCRSSKSLLHSNGNTYLYWFLQRPGQSPQLLIYRMSNLASGVPDRFSGSGSGTAFTLRISRVEAEDVGVYYCMQYLEYPLTFGAGTKLELKR
With B1 the “Pseudovirus IC50” value was 188 nM.
